These results are taken from publication PMC4046564, “Reconstitution of dynein transport to the microtubule plus end by kinesin” (eLife, 2014).

T1: Kip2 (S. cerevisiae, UniProt P28743 1-706, differently phosphorylated forms (doublet on SDS-PAGE; not treated with phosphatase); Atto647N on the SNAP tag in the TIRF assays)
T1 construct: kinesin Kip2, S. cerevisiae; genomic kip2 locus modified by homologous recombination (8HIS-ZZ-Tev-KIP2-g-FLAG-ga-SNAP); also called Kip2-Atto647; kinesin; source: S. cerevisiae (strain RPY1099, GAL1 promoter), purified (IgG sepharose via ZZ tag, TEV release; for SEC Ni-NTA then IgG sepharose); not shown: His8, N-terminal, cleaved; ZZ, N-terminal, cleaved; SNAP, C-terminal, kept
T1 sequence (looked up): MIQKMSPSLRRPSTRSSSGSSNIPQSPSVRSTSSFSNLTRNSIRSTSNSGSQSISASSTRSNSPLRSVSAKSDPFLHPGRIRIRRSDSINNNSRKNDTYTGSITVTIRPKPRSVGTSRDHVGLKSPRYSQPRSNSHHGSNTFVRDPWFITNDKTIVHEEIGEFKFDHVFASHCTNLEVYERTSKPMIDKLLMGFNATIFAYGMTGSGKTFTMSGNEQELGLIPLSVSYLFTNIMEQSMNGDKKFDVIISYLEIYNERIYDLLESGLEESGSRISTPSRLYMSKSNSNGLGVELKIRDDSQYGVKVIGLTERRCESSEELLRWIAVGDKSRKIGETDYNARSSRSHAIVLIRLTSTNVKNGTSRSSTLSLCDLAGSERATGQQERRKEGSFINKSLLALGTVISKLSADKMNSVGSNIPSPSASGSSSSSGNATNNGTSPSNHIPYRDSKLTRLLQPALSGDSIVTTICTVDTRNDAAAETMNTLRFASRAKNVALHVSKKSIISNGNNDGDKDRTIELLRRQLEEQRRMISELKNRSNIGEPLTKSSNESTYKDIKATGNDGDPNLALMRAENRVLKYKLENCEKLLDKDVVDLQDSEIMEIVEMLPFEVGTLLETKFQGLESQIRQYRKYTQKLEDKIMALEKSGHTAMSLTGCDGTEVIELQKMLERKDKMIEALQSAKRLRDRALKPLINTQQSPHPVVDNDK

B1: Bik1 (natural protein, S. cerevisiae, UniProt P11709 1-440, looked up)
chain: MDRYQRKIGCFIQIPNLGRGQLKYVGPVDTKAGMFAGVDLLANIGKNDGSFMGKKYFQTEYPQSGLFIQLQKVASLIEKASISQTSRRTTMEPLSIPKNRSIVRLTNQFSPMDDPKSPTPMRSFRITSRHSGNQQSMDQEASDHHQQQEFGYDNREDRMEVDSILSSDRKANHNTTSDWKPDNGHMNDLNSSEVTIELREAQLTIEKLQRKQLHYKRLLDDQRMVLEEVQPTFDRYEATIQEREKEIDHLKQQLELERRQQAKQKQFFDAENEQLLAVVSQLHEEIKENEERNLSHNQPTGANEDVELLKKQLEQLRNIEDQFELHKTKWAKEREQLKMHNDSLSKEYQNLSKELFLTKPQDSSSEEVASLTKKLEEANEKIKQLEQAQAQTAVESLPIFDPPAPVDTTAGRQQWCEHCDTMGHNTAECPHHNPDNQQFF
notes: Bik1 (Clip170 homolog), S. cerevisiae; open-reading frame amplified from genomic DNA; Eluted from Ni-NTA with imidazole; no removal of the tag is told; also called Clip170 homolog; source: sf21 insect cells (baculovirus), purified (Ni-NTA)
B2: Bik1ΔC (domain or fragment, S. cerevisiae, UniProt P11709 1-400, looked up)
chain: MDRYQRKIGCFIQIPNLGRGQLKYVGPVDTKAGMFAGVDLLANIGKNDGSFMGKKYFQTEYPQSGLFIQLQKVASLIEKASISQTSRRTTMEPLSIPKNRSIVRLTNQFSPMDDPKSPTPMRSFRITSRHSGNQQSMDQEASDHHQQQEFGYDNREDRMEVDSILSSDRKANHNTTSDWKPDNGHMNDLNSSEVTIELREAQLTIEKLQRKQLHYKRLLDDQRMVLEEVQPTFDRYEATIQEREKEIDHLKQQLELERRQQAKQKQFFDAENEQLLAVVSQLHEEIKENEERNLSHNQPTGANEDVELLKKQLEQLRNIEDQFELHKTKWAKEREQLKMHNDSLSKEYQNLSKELFLTKPQDSSSEEVASLTKKLEEANEKIKQLEQAQAQTAVESLPIF
notes: Bik1 (Clip170 homolog), S. cerevisiae, lacking the C-terminal 40 amino acids (zinc knuckle domain); also called Bik1ΔC construct lacking the C-terminal 40 amino acids; source: sf21 insect cells (baculovirus), purified (Ni-NTA)
B3: Bim1 (natural protein, S. cerevisiae, UniProt P40013 1-344, looked up)
chain: MSAGIGESRTELLTWLNGLLNLNYKKIEECGTGAAYCQIMDSIYGDLPMNRVKFNATAEYEFQTNYKILQSCFSRHGIEKTVYVDKLIRCKFQDNLEFLQWLKKHWIRHKDESVYDPDARRKYRPIITNNSATKPRTVSNPTTAKRSSSTGTGSAMSGGLATRHSSLGINGSRKTSVTQGQLVAIQAELTKSQETIGSLNEEIEQYKGTVSTLEIEREFYFNKLRDIEILVHTTQDLINEGVYKFNDETITGHGNGNGGALLRFVKKVESILYATAEGFEMNDGEDELNDKNLGEHGTVPNQGGYANSNGEVNGNEGSNHDVIMQNDEGEVGVSNNLIIDEETF
notes: Bim1 (EB1 homolog), S. cerevisiae; open-reading frame amplified from genomic DNA; also called EB1 homolog; source: E. coli BL-21(DE3), purified (Strep-Tactin, TEV release); not shown: His6, N-terminal, cleaved; Strep, N-terminal, cleaved

One assay deals with Kip2 (S. cerevisiae) (UniProt P28743).
In another assay the target is T1, Kip2. The experiment in a line: SEC; Superose 6 PC 3.2/30; indicated combinations of purified protein (100 picomoles each) pre-incubated at 1.1 μM for 10 min at 4°C; 50 mM Tris-HCl pH 8.0, 150 mM potassium acetate, 2 mM magnesium acetate, 1 mM EGTA, 5% glycerol, 1 mM DTT; fractions analysed by SDS-PAGE. The conditions noted are these: both partners purified. On the technique in general: In gel filtration, larger molecules generally elute earlier.

In the assay “Bik1ΔC” the target is B2. Described as above. The conditions noted are these: both partners purified.
The assay “Bik1” deals with B1. Described as above. To be noted: both partners purified.

For GST-dynein_(331 kDa), P36022 1-4092, the direction of dynein movements on dynamic microtubules (TIRF) with Lis1, Bik1, Bim1 and Kip2: proportion directed to the plus end; without Lis1 or Bik1 dynein moved to the minus end in the assay with Kip2 (S. cerevisiae) is 90%.
B1: in the assay with Kip2, the binding result is on record as “binds”.
Take B2: the binding result with Kip2 is on record as “binds”.
Regarding B3, the binding result with Bik1ΔC and with Bik1 was “binds” in each case.
